From patent US20130288266A1 (ROCHE DIAGNOSTICS OPERATIONS, published 2013) come the findings set out here.

“And” between values parts separate entries of the source, which are not always exact repeats. Equal entries are not always repeated.

The target of test [1] is T1, IGF-1R(1340-1366)[1346-pTyr]amid, phosphorylated IGF-1R peptide (phosphotyrosine at 1346 (IGF-1R numbering); C-terminal amide; in Examples 2.6 and 2.7 a biotinylated PEG-linker bound via glutamic acid at position 1340).
T1 construct: also called pIGF-1R peptide; pIGF-1R
T1 peptide: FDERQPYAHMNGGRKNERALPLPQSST
Briefly: SPR (Biacore 3000, 25 C), dual binder on biotinylated linker on SA chip, peptide injected; T0 linker (no spacer).

For test [2], the target named is T1, IGF-1R(1340-1366)[1346-pTyr]amid, …. Description: SPR (Biacore 3000, SA sensor, 25 C): both ssFab' hybridized on the immobilized biotinylated T0-Bi linker, peptide injected as analyte.
Description: (§1) As a control, buffer was injected instead of the ssFabs.
(§2) The system was regenerated after each concentration step with a 12 sec pulse of 250 mM NaOH and was reloaded with ssFab′ ligand.
For test [3], the target named is T2, IGF-1R(1340-1366)amid, non-phosphorylated IGF-1R peptide (C-terminal amide; in Example 2.6 a biotinylated PEG-linker bound via glutamic acid at position 1340).
T2 construct: also called Glu(Bi-PEG-1340]amid
T2 peptide: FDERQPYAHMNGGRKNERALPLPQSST
Described as above.
Description: as §1, §2

The target in test [4] is T1, IGF-1R(1340-1366)[1346-pTyr]amid, …. Description: SPR (Biacore 3000, 25 C), ssFab's on biotinylated 8xC18 linker on SA chip, pIGF-1R peptide injected. In general terms: SPR reads the build-up and loss of mass on a sensor chip optically.
Description: (§3) The system was regenerated after each concentration step with a 12 sec pulse of 250 mM NaOH and was reloaded with ssFab ligand.
Test [5] shares this target. Description: SPR (Biacore 3000, SA sensor, 25 C): both ssFab' hybridized on the immobilized biotinylated 8xC18 linker, pIGF-1R peptide injected as analyte.
Description: 89 RU amino-PEO-biotin were captured on the reference flow cell 1.
as §3
Test [6] shares this target. Briefly: SPR (Biacore 3000, 25 C).
For test [7], the target named is T3, phosphorylated IR in IR overexpressing 3T3 cells stimulated with Insulin (UniProt P06213 28-1382, limits assumed, phosphorylated after stimulation with 100 ng/ml Insulin).
T3 construct: whole, on cells; also called pIR (cells)
T3 sequence (P06213 28-1382 limits assumed): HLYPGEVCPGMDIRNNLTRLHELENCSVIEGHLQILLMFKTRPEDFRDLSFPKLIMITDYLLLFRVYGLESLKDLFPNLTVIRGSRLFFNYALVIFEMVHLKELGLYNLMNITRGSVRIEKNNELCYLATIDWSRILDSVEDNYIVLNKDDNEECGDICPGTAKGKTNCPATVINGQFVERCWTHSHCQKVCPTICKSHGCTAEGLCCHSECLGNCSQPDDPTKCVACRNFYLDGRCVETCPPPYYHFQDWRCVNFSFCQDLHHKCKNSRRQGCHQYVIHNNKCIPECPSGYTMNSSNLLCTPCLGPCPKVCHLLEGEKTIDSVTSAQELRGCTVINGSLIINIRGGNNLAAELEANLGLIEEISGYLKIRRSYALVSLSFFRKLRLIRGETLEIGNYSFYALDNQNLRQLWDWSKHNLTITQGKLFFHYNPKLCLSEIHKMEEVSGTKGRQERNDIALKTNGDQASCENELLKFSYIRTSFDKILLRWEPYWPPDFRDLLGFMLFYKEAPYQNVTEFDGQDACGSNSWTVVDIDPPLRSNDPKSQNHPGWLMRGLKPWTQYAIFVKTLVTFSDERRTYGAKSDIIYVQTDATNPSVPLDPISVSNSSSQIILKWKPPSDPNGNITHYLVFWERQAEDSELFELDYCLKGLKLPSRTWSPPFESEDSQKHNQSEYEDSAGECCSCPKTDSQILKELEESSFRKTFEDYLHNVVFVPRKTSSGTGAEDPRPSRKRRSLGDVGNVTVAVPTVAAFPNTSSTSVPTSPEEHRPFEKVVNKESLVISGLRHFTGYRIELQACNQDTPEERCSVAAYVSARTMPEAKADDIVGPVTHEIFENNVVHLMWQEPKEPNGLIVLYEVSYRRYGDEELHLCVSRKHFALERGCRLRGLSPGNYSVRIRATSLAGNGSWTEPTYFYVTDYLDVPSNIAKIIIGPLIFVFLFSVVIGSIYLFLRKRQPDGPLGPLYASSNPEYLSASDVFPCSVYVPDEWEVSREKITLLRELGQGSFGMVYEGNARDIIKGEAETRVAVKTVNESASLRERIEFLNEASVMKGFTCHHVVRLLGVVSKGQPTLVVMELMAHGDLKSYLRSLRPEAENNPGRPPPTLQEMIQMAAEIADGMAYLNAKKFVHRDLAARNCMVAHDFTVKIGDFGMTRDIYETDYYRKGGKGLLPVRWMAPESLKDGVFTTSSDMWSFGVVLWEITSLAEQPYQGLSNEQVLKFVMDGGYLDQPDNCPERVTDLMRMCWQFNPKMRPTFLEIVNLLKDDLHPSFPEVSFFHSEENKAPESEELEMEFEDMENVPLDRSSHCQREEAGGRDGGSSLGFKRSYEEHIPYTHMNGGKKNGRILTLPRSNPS
Description: IHC (Ventana BenchMark XT), FFPE 3T3 cells.
Description: (§4) In order to test the specificity of the anti-pIGF-1R dual binder molecule an elaborate test system based on formalin-fixed paraffin-embedded (FFPE) 3T3 cells was used. 3T3 cells had been stably transfected with either IGF-1R or IR expression vectors. Cells were fixed with formalin and embedded in paraffin according to standard protocols. Prior to fixation cells were stimulated with 100 ng/ml of either IGF-1 or Insulin to induce IGF1-R or IR phosphorylation or were left untreated.
(§5) A biotin label within the linker molecule served as a detection tag for the streptavidin-based Ventana iVIEW DAB detection kit.

In test [8] the target is T4, IR (insulin receptor) in untreated IR overexpressing 3T3 cells (UniProt P06213 28-1382, limits assumed).
T4 construct: whole, on cells; also called IR (unstimulated)
T4 sequence (P06213 28-1382 limits assumed): as above
Briefly: IHC (Ventana BenchMark XT), FFPE 3T3 cells.
Description: as §4, §5

Test [9] addresses T5, wild-type HER3 in unstimulated Hek293 cells (transfected with HER2 and HER3) (UniProt P21860 20-1342, limits assumed).
T5 construct: whole, on cells; also called HER3 (unstimulated cells)
Description: IHC (Ventana BenchMark XT), ssFab on 4xC18 linker, FFPE Hek293 cells.
Description: (§6) Hek293 cells had been transiently transfected with both HER2 and HER3 expression vectors. In one case an HER3 expression vector was used that encodes an mutated version of HER3, in which 14 tyrosines of the intracellular domain that serve as phosphorylation sites are replaced with phenylalanines (Y975F, Y1054F, Y1132F, Y1159F, Y1197F, Y1199F, Y1222F, Y1224F, Y1260F, Y1262F, Y1276F, Y1289F, Y1307F, Y1328F). Cells were fixed with formalin and embedded in paraffin according to standard protocols.
(§7) 1 μg/ml per ssFab fragment of only ssFab 7.2.32 or only ssFab 4.1.15, respectively, and an equimolar amount of 4×C18 linker, as well as a mixture of both ssFab′ fragments of ssFab 7.2.32 and ssFab 4.1.15 (both at 1 μg/ml) and an equimolar amount of 4×C18 linker, respectively, were used for detection. A biotin label within the linker molecule served as a detection tag for the streptavidin-based Ventana iVIEW DAB detection kit.

Test [10] concerns the target T6, mutated HER3(Y>F) in NRG1-beta1-stimulated Hek293 cells, 14 tyrosines of the intracellular domain replaced … (UniProt P21860 20-1342, limits assumed).
T6 construct: whole, on cells; also called mutated version of HER3 lacking the Tyr1289 phosphorylation site
Described as above.
Description: as §6, §7

For test [11], the target named is T7, human_HER3(1242-1267)-Bi-PEG-amide (human, C-terminal Bi-PEG-amide (biotin); singly grafted on streptavidin).
T7 construct: Injected as analyte, singly grafted on streptavidin
T7 peptide: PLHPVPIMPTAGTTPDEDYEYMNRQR
Description: SPR kinetic screening (Biacore A100), mAb captured by anti-mouse IgG Fc, peptide singly grafted on streptavidin injected.
Description: A Biacore™ A100 instrument under control of the software version V1.1 is used. A Biacore™ CM5 chip is mounted into the instrument and is hydrodynamically addressed conditioned according to the manufacturer's instructions. As a running buffer an HBS-EP buffer is used (10 mM HEPES (pH 7.4), 150 mM NaCl, 1 mM EDTA, 0.05% (w/v) P20). A polyclonal rabbit anti-mouse IgG Fc capture antibody is immobilized at 30 μg/ml in 10 mM sodium acetate buffer (pH 4.5) to spots 1, 2, 4 and 5 in flow cells 1, 2, 3 and 4 at 10,000 RU. The antibody is covalently immobilized via NHS/EDC chemistry. The sensor is deactivated thereafter with a 1 M ethanolamine solution. Spots 1 and 5 are used for the determination and spots 2 and 4 are used as reference. Prior to application to the sensor chip the hybridoma supernatants containing mAbs are diluted 1:2 in HBS-EP buffer. The diluted solution is applied at a flow rate of 30 μl/min for 1 min. […] Thereafter, the signal is recorded for 5 min dissociation time. The sensor is regenerated by injecting a 10 mM glycine-HCl solution (pH 1.7) for 2 min, at a flow rate of 30 μl/min. The dissociation rate constant kd (1/s) is calculated according to a Langmuir model using the evaluation software according to the manufacturer's instructions.

Test [12] concerns the target T6, mutated HER3(Y>F) in …. Briefly: IHC (Ventana BenchMark XT), FFPE Hek293 cells.
Description: The IHC experiments were performed on the BenchMark XT platform from Ventana. For the assay an anti-pHER3 dual binder was used that consisted of ssFab 7.2.32 (binding a non-phospho epitope of the intracellular domain of HER3), ssFab 4.1.15 (binding the pTyr1289 phospho-epitope of the intracellular domain of HER3) and a flexible linker. […] A biotin label within the linker molecule served as a detection tag for the streptavidin-based Ventana iVIEW DAB detection kit.
In order to test the specificity of the anti-pHER3 dual binder molecule an elaborate test system based on formalin-fixed paraffin-embedded (FFPE) Hek293 cells was used. Hek293 cells had been transiently transfected with both HER2 and HER3 expression vectors. In one case an HER3 expression vector was used that encodes an mutated version of HER3, in which 14 tyrosines of the intracellular domain that serve as phosphorylation sites are replaced with phenylalanines (Y975F, Y1054F, Y1132F, Y1159F, Y1197F, Y1199F, Y1222F, Y1224F, Y1260F, Y1262F, Y1276F, Y1289F, Y1307F, Y1328F). Cells were fixed with formalin and embedded in paraffin according to standard protocols. […]
Test [13] deals with T3, phosphorylated IR in IR overexpressing …. Description: IHC (Ventana BenchMark XT), ssFab' on 8xC18 linker, FFPE 3T3 cells.
Description: as §4, §5
For test [14], the target named is T4, IR (insulin receptor) in untreated IR …. The description is as above.
Description: as §4, §5
Test [15] concerns the target T8, IGF-1R in untreated IGF-1R overexpressing 3T3 cells (UniProt P08069 31-1367, limits assumed).
T8 construct: whole, on cells; also called IGF-1R (unstimulated)
Described as above.
Description: as §4, §5

T6 sequence (P21860 other isoform, or with tags, fused parts or gaps limits assumed, change not shown): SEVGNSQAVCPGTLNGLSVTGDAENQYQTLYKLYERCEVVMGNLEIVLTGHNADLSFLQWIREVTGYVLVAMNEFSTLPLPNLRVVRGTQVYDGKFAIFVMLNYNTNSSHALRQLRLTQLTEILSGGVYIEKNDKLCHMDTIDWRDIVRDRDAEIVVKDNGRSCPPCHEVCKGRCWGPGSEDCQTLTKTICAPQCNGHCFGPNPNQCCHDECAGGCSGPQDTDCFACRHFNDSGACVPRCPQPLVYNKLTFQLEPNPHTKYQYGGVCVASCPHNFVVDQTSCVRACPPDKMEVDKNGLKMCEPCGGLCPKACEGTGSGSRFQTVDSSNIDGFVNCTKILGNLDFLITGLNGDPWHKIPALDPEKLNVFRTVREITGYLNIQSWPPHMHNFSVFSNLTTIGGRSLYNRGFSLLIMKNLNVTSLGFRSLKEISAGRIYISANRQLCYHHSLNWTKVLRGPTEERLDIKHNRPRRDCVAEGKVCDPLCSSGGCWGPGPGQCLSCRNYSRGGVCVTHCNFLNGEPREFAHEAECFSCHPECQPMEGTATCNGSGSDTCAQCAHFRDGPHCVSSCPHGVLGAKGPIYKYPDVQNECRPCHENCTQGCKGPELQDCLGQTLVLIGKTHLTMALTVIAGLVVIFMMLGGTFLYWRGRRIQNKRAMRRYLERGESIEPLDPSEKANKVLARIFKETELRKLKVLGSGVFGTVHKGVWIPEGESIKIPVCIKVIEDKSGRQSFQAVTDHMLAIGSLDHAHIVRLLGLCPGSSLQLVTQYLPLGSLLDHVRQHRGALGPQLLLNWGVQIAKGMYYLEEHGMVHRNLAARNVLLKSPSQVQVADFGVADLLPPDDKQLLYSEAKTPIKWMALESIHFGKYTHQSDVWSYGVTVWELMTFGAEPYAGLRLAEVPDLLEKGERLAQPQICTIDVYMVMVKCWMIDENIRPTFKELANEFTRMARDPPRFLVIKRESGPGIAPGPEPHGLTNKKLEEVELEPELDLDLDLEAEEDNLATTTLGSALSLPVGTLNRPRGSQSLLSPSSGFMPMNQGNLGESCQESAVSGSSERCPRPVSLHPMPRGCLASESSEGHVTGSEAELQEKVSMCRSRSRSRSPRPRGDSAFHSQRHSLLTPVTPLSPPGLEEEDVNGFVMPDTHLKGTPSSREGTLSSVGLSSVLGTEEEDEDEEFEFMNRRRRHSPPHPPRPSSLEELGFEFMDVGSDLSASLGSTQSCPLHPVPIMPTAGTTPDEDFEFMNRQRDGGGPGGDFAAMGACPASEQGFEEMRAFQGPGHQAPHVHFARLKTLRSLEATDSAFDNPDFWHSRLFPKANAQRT
T8 sequence (P08069 31-1367 limits assumed): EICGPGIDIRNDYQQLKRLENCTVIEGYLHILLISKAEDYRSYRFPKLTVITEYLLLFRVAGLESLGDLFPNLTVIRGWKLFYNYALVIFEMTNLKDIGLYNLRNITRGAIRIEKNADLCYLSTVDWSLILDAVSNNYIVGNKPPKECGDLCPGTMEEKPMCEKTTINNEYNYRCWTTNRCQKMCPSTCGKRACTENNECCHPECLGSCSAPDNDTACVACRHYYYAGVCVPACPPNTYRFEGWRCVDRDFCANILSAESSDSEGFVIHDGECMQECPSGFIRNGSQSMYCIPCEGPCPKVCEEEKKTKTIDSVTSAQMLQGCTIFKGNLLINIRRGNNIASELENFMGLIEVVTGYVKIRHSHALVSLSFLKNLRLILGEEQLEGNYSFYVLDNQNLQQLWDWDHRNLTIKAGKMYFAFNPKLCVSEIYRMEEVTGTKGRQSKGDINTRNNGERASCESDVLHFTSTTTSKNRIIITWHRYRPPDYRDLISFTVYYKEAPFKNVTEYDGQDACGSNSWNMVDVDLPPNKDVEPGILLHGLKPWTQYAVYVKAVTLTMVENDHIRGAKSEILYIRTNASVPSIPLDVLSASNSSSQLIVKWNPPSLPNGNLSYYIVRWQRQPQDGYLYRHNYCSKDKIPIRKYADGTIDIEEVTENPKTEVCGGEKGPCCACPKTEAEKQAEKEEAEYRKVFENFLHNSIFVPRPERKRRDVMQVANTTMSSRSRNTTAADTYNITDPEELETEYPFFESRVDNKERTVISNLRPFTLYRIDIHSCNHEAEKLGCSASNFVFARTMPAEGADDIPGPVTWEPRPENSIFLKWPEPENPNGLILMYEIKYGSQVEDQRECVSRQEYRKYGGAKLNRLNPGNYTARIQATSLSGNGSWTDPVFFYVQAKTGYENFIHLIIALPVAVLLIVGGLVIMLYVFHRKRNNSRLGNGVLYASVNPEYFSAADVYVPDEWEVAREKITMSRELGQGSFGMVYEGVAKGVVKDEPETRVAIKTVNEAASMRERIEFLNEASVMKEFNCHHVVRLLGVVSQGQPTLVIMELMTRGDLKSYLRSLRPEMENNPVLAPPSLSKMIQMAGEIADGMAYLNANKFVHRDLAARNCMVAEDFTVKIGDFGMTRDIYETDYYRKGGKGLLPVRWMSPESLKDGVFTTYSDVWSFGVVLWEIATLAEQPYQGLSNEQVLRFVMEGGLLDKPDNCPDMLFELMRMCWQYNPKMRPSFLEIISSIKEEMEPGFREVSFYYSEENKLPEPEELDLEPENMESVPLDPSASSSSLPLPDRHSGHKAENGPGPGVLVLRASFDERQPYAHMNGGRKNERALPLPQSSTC

B1: T0 dual binding agent with ssFab' 8.1.2 and ssFab' 1.4.168 on the biotinylated T0-Bi 37-mer ssDNA-Linker (linker 17 of example 2.4) (bispecific antibody, V domains shown)
VH 1: EVQLQQSGPALVKPGASVKMSCKASGFTFTSYVIHWVKQKPGQGLEWIGYLNPYNDNTKYNEKFKGKATLTSDRSSSTVYMEFSSLTSEDSAVYFCARRGIYAYDHYFDYWGQGTSLTVSS
VL 1: QIVLTQSPAIMSASPGEKVTLTCSASSSVNYMYWYQQKPGSSPRLLIYDTSNLASGVPVRFSGSGSVTSYSLTISRMEAEDAATYYCQQWSTYPLTFGAGTKLELK
VH 2: QCDVKLVESGGGLVKPGGSLKLSCAASGFTFSDYPMSWVRQTPEKRLEWVATITTGGTYTYYPDSIKGRFTISRDNAKNTLYLQMGSLQSEDAAMYYCTRVKTDLWWGLAYWGQGTLVTVSA
VL 2: QLVLTQSSSASFSLGASAKLTCTLSSQHSTYTIEWYQQQPLKPPKYVMELKKDGSHTTGDGIPDRFSGSSSGADRYLSISNIQPEDESIYICGVGDTIKEQFVYVFGGGTKVTVLG
modifications: 17 mer ssDNA (SEQ ID NO:6, fluorescein) on hinge cysteine; 19 mer ssDNA (SEQ ID NO:5, Cy5) on hinge cysteine
A word on the Kd: it is the equilibrium constant for the complex coming apart. Read a low Kd as a tighter complex. B1: the dissociation constant Kd in [1] was 0.03 nM; in [2], 0.0344 nM; in [3], 1.2 nM and 1 nM. The same molecule registered a t1/2 diss in test [3] of 5 min.

B2: anti-pIGF-1R dual binder composed of ssFab' 1.4.168, ssFab' 30.4.33 and an 8xC18 linker molecule (linker 14 of example 2.4) (bispecific antibody, V domains shown)
VH 1: EVQLQESGPEVAKPGASVKMSCKASGYTFTDYIIHWVKQRPGQDLEWIGYINPYNDKSKYNEKFKDKATLTSDRSSSTSYMDLSTLTSDDSAVYYCTRHGYYRSDGFDYWGQGTTLTVSS
VL 1: DIVLTQSPTIMSASPGEKVTMTCRASSSVSSSSLHWYQQKPGSSPKLWIYSTSTLASGVPARFSGSGSGTSYSLTISGVETEDAATYYCQQYGTSPYTFGSGTKVDIK
VH 2: QCDVKLVESGGGLVKPGGSLKLSCAASGFTFSDYPMSWVRQTPEKRLEWVATITTGGTYTYYPDSIKGRFTISRDNAKNTLYLQMGSLQSEDAAMYYCTRVKTDLWWGLAYWGQGTLVTVSA
VL 2: QLVLTQSSSASFSLGASAKLTCTLSSQHSTYTIEWYQQQPLKPPKYVMELKKDGSHTTGDGIPDRFSGSSSGADRYLSISNIQPEDESIYICGVGDTIKEQFVYVFGGGTKVTVLG
modifications: 17 mer ssDNA (SEQ ID NO:6) on hinge cysteine; ssDNA oligonucleotide on the Fab' hinge region
notes: Two Fab'-ssDNA conjugates hybridised on biotinylated linker 14 ((Spacer C18)4-(Biotin-dT)-(Spacer C18)4)
By koff is commonly meant the rate constant with which the complex falls apart. A high value points to fast dissociation. As a reminder, the kon is the rate constant with which the complex forms. A low value points to slower complex formation. In test [4], B2 gave a Kd of around 0.01 nM and a koff of 1.39e-05 s⁻¹. In test [5], the Kd is 0.0112 nM and 0.011 nM; the kon worked out at 1.24e+06 M⁻¹ s⁻¹. In addition, in test [6], the “fold affinity improvement compared to ssFab' 1.4.168 alone” value was 300 fold, the “fold affinity improvement compared to ssFab' 30.4.33 alone” value was determined as 200 fold, the “fold lower off-rate than ssFab' 1.4.168” value is 230 fold and the “fold lower off-rate than ssFab' 30.4.33” value amounted to 110 fold. Also, the binding result in test [7] is “no binding (tested: 0.5 µg/ml per ssFab')”. Besides, the binding result in test [8] is recorded as “no binding (tested: 0.5 µg/ml per ssFab')”.

B3: ssFab 4.1.15 (recombinant Fab 4.1.15 conjugated to the 17 mer oligo by sortase) (Fab, V domains shown)
VH: EVQLQESGPELVKPGTSVTISCKTSGYAFSNSWMSWVKQRPGQGLEWIGRIFPGNGDTDYNGNFRAKATLTADKSSSTAFMQLSRLTSVDSAVYFCARSRGLRQGAGFAYWGQGTLVTVSA
VL: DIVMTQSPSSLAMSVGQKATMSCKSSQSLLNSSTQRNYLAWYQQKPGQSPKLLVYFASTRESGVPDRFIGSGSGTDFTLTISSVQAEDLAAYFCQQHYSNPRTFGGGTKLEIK
notes: also called Fab-Oligo 4.1.15
On to B3, for which the binding result in [9] and in test [10] was “no binding (tested: 1 µg/ml)” each time.

B4: monoclonal antibody 7.2.32 directed against HER3(1242-1267) (antibody, V domains shown)
VH: EVQLQESGGGLVQPKGSLQLSCAASGFTFNTYAMHWVRQAPGKGLEWVARIRTESSDYATDYADSVKDRFIISRDDSQNMLYLQMNNLKSEDTAIYYCVRSSGFDYWGQGTTLTVSS
VL: DIQMTQSPSLPVSLGDQASISCRSSQSLVHDNGNTYLHWFLQKPGQSPKLLIYKVSNRFSGVPDRFGGSGSGTDFTLKISGVEAEDLGVYFCSQGTHVPTFGGGTKLEIK
notes: Mouse monoclonal IgG from hybridoma supernatant, captured by anti-mouse IgG Fc; also called mAb 7.2.32
As for B4, in test [11], the off-rate (koff) came to 0.0023 s⁻¹.

B5: anti-pHER3 dual binder consisting of ssFab 7.2.32, ssFab 4.1.15 and a flexible linker with a 4xC18 spacer (linker 12 of example 2.4) (bispecific antibody, V domains shown)
VH 1: EFEVQLQESGGGLVQPKGSLQLSCAASGFTFNTYAMHWVRQAPGKGLEWVARIRTESSDYATDYADSVKDRFIISRDDSQNMLYLQMNNLKSEDTAIYYCVRSSGFDYWGQGTTLTVSSS
VL 1: DIQMTQSPSLPVSLGDQASISCRSSQSLVHDNGNTYLHWFLQKPGQSPKLLIYKVSNRFSGVPDRFGGSGSGTDFTLKISGVEAEDLGVYFCSQGTHVPTFGGGTKLEIK
VH 2: EFEVQLQESGPELVKPGTSVTISCKTSGYAFSNSWMSWVKQRPGQGLEWIGRIFPGNGDTDYNGNFRAKATLTADKSSSTAFMQLSRLTSVDSAVYFCARSRGLRQGAGFAYWGQGTLVTVSA
VL 2: not shown
notes: Two recombinant Fab-oligo conjugates hybridised on biotinylated linker 12 ((Spacer C18)2-(Biotin-dT)-(Spacer C18)2)
On to B5, for which the binding result in test [12] is reported as “no binding (tested: 1 µg/ml per ssFab)”.

B6: ssFab' 30.4.33 (Fab' of mAb 30.4.33 linked to ssDNA) (Fab, V domains shown)
VH: EVQLQESGPEVAKPGASVKMSCKASGYTFTDYIIHWVKQRPGQDLEWIGYINPYNDKSKYNEKFKDKATLTSDRSSSTSYMDLSTLTSDDSAVYYCTRHGYYRSDGFDYWGQGTTLTVSS
VL: DIVLTQSPTIMSASPGEKVTMTCRASSSVSSSSLHWYQQKPGSSPKLWIYSTSTLASGVPARFSGSGSGTSYSLTISGVETEDAATYYCQQYGTSPYTFGSGTKVDIK
modifications: ssDNA oligonucleotide coupled to the Fab' hinge region
As to B6, the binding result in test [13], in [14] and in test [15] was “no binding (tested: 0.5 µg/ml)” each time.
